Source: the nanobody polyreactivity screen of Harvey et al. (2022)

Assay: yeast display, Sf9 membrane polyspecificity reagent, FACS + sequencing; frameworks hold sequencing errors
Summary of the method: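 A synthetic nanobody library was expressed on Saccharomyces cerevisiae BJ5465 by galactose induction for 36–48 hours. The library was stained for 1 hour at 4 °C with 10% biotinylated, detergent-solubilized Sf9 membrane reagent and enriched with streptavidin microbeads before FACS. Low and high (top ~1%) gates were set on anti-HA fluorescence for expression and streptavidin fluorescence for reagent binding, and each polyreactivity label reflects the gate of origin.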

Row | Sequence | polyreactivity (PSR sort gate)
1 | QVQLVESGGGLVQAGGSLRLSCAVSGGLFSFYAMGWYRQAPGKERELVAAISSGGTTYYADSVKGRFTISRDNAKNTVYLQMNSLKPEDTAVYYCALLVGHNYWGQGTQVTVSS | low polyreactivity
2 | QVQLVESGGGLVQAGGSLRLSCCASGFTVSSYARAWYRQAPGKERELVAAITYRGGSTYYADSVKGRFTISRDNAKNTVFLLMNSLKPEDTAVYYCAARWGYRMYWGQGTQVTVSS | high polyreactivity
3 | QVQLVESGGGLVQAGGSLRLSCDASGFIFGYYAMGWYRHAPGKERELVAAISRGDTSTYYADSVKGRFTISRDNAKNTVYLQMYSLKPEDTAVYYCAADWTGYGYYYWGQGTQVTVSS | low polyreactivity
4 | QVQLVESGGGLVQAGGSLRLSCDASGFIFPYYAMGWYRQAPGKERELVARITRGGRTYYADSVKGRFTISRDNAKNTVYLQMNSLKPEDTAVYYCATTGSSYFHSFEYDYWGQGTQVTVSS | low polyreactivity
5 | QVQLVESGGGLVQAGGSLRLSCDASGFIFTGNVMGWYRQAPGKERELVAGITYTSGSTYYADSVKGRFTISRDYAKNTVYLQMNSLKPEDTAVYYCAAEITRHYVFGDDYWGQGTQVTVSS | low polyreactivity
6 | QVQLVESGGGLVQAGGSLRLSCDASGFTFRAYPIGWYREAPGKERELVAAITYSGGRTYYADSVKGRFTISRDNAKNTVYLQMNSLKPEDTAVYYCANYDYWGQGTQVTVSS | high polyreactivity
7 | QVQLVESGGGLVQAGGSLRLSCDASGFTFYRYAMGWYRQAPGKERELVAAISSSGSSTYYADSVKGRFTISRDNAKNTVYLQMNSLKPEDTAVYYCAKRLGGSRPYYYWGQGTQVTVSS | high polyreactivity
8 | QVQLVESGGGLVQAGGSLRLSCDASGIIFPRYAMGGYRQAPGKERELVAAITIGGRTNYADSVKGRFTISRDNAKNTVYLQMTSLKPEDTAVYYCAAQTYVPYYEYDYWGQGTQVTVSS | low polyreactivity
9 | QVQLVESGGGLVQAGGSLRLSCDASGIIFQYYAMGWYRHAPGKERELVAAISWSGGSTYYADSVKGRFTISRDNAKNTVYLQMNSLKPEDTAVYFCAARSRSFWPYEGDYWGQGTQVTLSS | low polyreactivity
10 | QVQLVESGGGLVQAGGSLRLSCDASGITFDDYSRGWYRQAPGKERELVAAISGSGGSTYYADSVKGRFTISRDNAKNTVFLQMHSLKPEDTAVYYCAASGPEGQYLWYDYWGKGTQVTVSS | high polyreactivity
11 | QVQLVESGGGLVQAGGSLRLSCDASGITFGYYAMGWYRQAPGKERELVAAISNSGRTYYADSVKGRFTISRDNAKNSVYLQMNSLKPEDTAVYYCAADDAYYDFYFWGQGTQVTVSS | low polyreactivity
12 | QVQLVESGGGLVQAGGSLRLSCDASGITSHWYVMGWYRQAPGKERELVAAINSSGGRTSYADSVKGRFTISRDNAKNTVYLQMNSLKPEYTAVYYCAAGYTHSYFLGATGKVDYWGQGTQVTVSS | low polyreactivity
13 | QVQLVESGGGLVQAGGSLRLSCDASGLIFYSNAMGWYRQAPGKERELVAAISSSGGSTYYADCVKGRFTISRDNAKNTVYLQMNSLKPEDTAVYFCAAAGDDYWGQGTQVTVSS | low polyreactivity
14 | QVQLVESGGGLVQAGGSLRLSCDASGLTFRLYTMGWYRQAPGKETELGAAITYSGDSTYYADSVKGRFTISRDNAKNTDYLQMNSLKPEDTAVYYCAARKYYARYYWGQGTQVTVSW | high polyreactivity
15 | QVQLVESGGGLVQAGGSLRLSCDASGLTFSWYAMGWSRQAPGKERELVAAISRSGGSTYYADSVKGRFSISRDKAKNTVYLQMNSLKPEDTGVYYCAAETDIAPDYDYWGQGTQVTVSS | low polyreactivity
16 | QVQLVESGGGLVQAGGSLRLSCDASGNTYLNALGWYRQAPGKERELVAAISKGGADTYYADSVKGRFTISRDNAKNTVYLQMNSLKPEDTAVYYCAADGYADGWWVEYPWTYDYWGQGTQVTVSS | low polyreactivity
17 | QVQLVESGGGLVQAGGSLRLSCDASGRIFGYYTMGWYRQAPGKERELVAAISNSGVSTYYADSVKGRFTISRDNAKNTVYLQMNSLKPEDTAVYYCNARLYSYYKFNYWGQGTQVTVSS | high polyreactivity
18 | QVQLVESGGGLVQAGGSLRLSCDASGRIFYFYAMGWYRQAPGKESELVAAISTSGGSTYYADSVKGRFTISRDNAKNTVYLQMNSLKPEDTAVYYCAARYRYYGSEYDYWGQGTQVTVSS | low polyreactivity
19 | QVQLVESGGGLVQAGGSLRLSCDASGRIFYRYVMGWYRQAPGKERELVAAIRNSGGSTYYADSVKGRFTISRDNAKNTVYLQMNSMKPEDTAVYYCAKRYGTSFYVGSAKIGYDYWGQGTQVTLSS | high polyreactivity
20 | QVQLVESGGGLVQAGGSLRLSCDASGRILHYYAMGWYRQAPGKERELVATISISGGNTRYADSVKGRFTISRDNAKNTVYLQMNSLKPEDTAVYYCDARPYAGFDNWGQGTQVTVSS | high polyreactivity
21 | QVQLVESGGGLVQAGGSLRLSCDASGRTFNYNAMGWYRQAPGKERELVAAISGNGGNTYYADSVKWRFTISRDNAKNTVYLQMNSLKPEDTAGYYCNAVYRYYREWKYDYWGQGTQVTVSS | high polyreactivity

Row | Sequence | polyreactivity (PSR sort gate)
22 | QVQLVESGGGLVQAGGSLRLSCDASGRTFYANDMGWYRQAPGKERELVAAISSSVTSTHYADSVKGRFTISRDNAKNTVYLQMNSLKPEDTAVYYCNKDPIREVQPPGPSEMDYWGQGTQVTVSS | low polyreactivity
23 | QVQLVESGGGLVQAGGSLRLSCDASGRTSRWNAMGCYRQAPGKERELVAAISSGSSTTYADSVKGRFTISRDNAKNTVYLQMNSLKPEATAVYYCNAKSGSRFVYRRYYTYNSWGQGTQVTVSS | high polyreactivity
24 | QVQLVESGGGLVQAGGSLRLSCDASGSIFDGYGMGWYRQAPGKERELVASITWNDGSTYYAASVKGRFTISRDNATNTVYLQMNSLKPEDTAVYYCAADQWGYEYDYWGQGTQVTVSS | low polyreactivity
25 | QVQLVESGGGLVQAGGSLRLSCDASGSIFDYNTMGWYRQAPGKERELIAVISGTGGSTYYGDSVKGRFTISRDNAKNTVYLEMNSLKPEDTAVYYCAAAWYYSSRAFHATWGHDYWGQGTQVTVSS | low polyreactivity
26 | QVQLVESGGGLVQAGGSLRLSCDASGSIFGGYAMGWYRQAHGKARELVAGISSGGSTYYADSVKGRFTISRDNAKNTVYLQMNSLKPEDTAVYYCATSTYAYRRNSYYYTRPRFGYCGQGTQVTVSS | high polyreactivity
27 | QVQLVESGGGLVQAGGSLRLSCDASGSIFRYYGMGWYRQAPGKERELVAAISARGGSTRYADSVKGRFTISRDNAKNTVYLQMNSLKPEDTAVYYCAAGYPYDYDYWGQGTQVTVSS | high polyreactivity
28 | QVQLVESGGGLVQAGGSLRLSCDASGSIFYNNAMGWYRQAPGKERELVATIRRSGGSTYYADSVKGRFTISRDNAKNTVYLQMNSLKPEDTAVYYCAADYTPDLLSKVDYWGQGTQVTVSS | low polyreactivity
29 | QVQLVESGGGLVQAGGSLRLSCDASGSTFAYNVMGWYRQAPGKERELVAAISRSGGSTYYADSVKGRFTISRDNAKNTVYLQMNSLKPEDTAVYYCAKLFRPRLQDGYWGQGSQVTVSS | high polyreactivity
30 | QVQLVESGGGLVQAGGSLRLSCDASGSTFDTYAMGCYTQAPGKERELVAAITEDGASTYYADSVKGRFTISRDNAKYTVYLQMNSLKPEDTAVYYCAAEPTYWPVWYVLYDYLGQGTQVTVSS | low polyreactivity
31 | QVQLVESGGGLVQAGGSLRLSCDASGSTFGANAMGWYRQAPGKEREFVAAISRSGVRTYYADSVKGRFTISRDNAKNTVYLQMNSLKPEDTAVYYCAADGYWWTYTRYDYWGQGTQVTVSS | low polyreactivity
32 | QVQLVESGGGLVQAGGSLRLSCDASGSTFPSYTMGWSRQAPGKERELVAVIRLSSGSTYYADSVKGRFTISRDNAKNTVYLQMNSLKPEDTAVYYCNTGRYHYFPNYWYDYWGQGTQVTVSS | low polyreactivity
33 | QVQLVESGGGLVQAGGSLRLSCDASGSTFYVYAMGWYRQAPGKERELVASINSSTSTNYADSVKGRFTISRDNAKNTVYLQMNSLKPEDTAVYYCAADSRVPEYRSPKNDYWGQGTQVTVSS | low polyreactivity
34 | QVQLVESGGGLVQAGGSLRLSCDASGSTLSENVMGWYRQAPGKERELVATISYSGDSTYYADSVKGRFTISRDNAKNTVYLQMNSLKPEDTAVYYCAAGVGWDFAYWGQGTQVTVSS | low polyreactivity
35 | QVQLVESGGGLVQAGGSLRLSCDAYGSIFRLYAMGWFRQAPGKEREFVAAIDKRGGRTHYADSVKGRFTISRDNAKNTVYLQITSLKPEDTAVYYCAAKAYVVTNGHGKLDYWGQGPQVTVSS | high polyreactivity
36 | QVQLVESGGGLVQAGGSLRLSCDDSGRIFGGYGMGWYTQAPGKEGELVAAISARGGSTYYADSVKGRFTISRDNAKNTVYLQMNSLKPEDTEFYYCAAVEASSRGYYDYDYWGQGTQVTVSS | low polyreactivity
37 | QVQLVESGGGLVQAGGSLRLSCGASGFISTYYAMGWYRQAPGKERELVAAISWNGGSTYYADSVKGRFTISRDNAKNTVYLQMNSLKPEDTAVYYCAAYLGKWRHFYSSDYDYWGQGTQVTVSS | low polyreactivity
38 | QVQLVESGGGLVQAGGSLRLSCGASGRFFDDYAVGWYRQAPGKEREFVAAISRSGASTYYADSVKGRFTISRDNAKNTVYLQMNSLKPEDTAVYYCAARAGANYRMDYWGQGTQVTVSS | high polyreactivity
39 | QVQLVESGGGLVQAGGSLRLSCGASGRIFRGYTMGWYRQAPGKERELVAAINRSGGNTYYADSVKGRFTISRDNAKNTVYLQLNSLKPEDTAVYYCAAGARGYGWRGDYWGQGTQVTVSS | low polyreactivity
40 | QVQLVESGGGLVQAGGSLRLSCGASGRIFYSNAMGWYRQAPGTERELVAAITGSGGRTHYADSVKGRFTISRDNAKNTVYLQMNSLKPEDTAVYYCAKDGYFPEFDYWGQGTQVTVSS | high polyreactivity
41 | QVQLVESGGGLVQAGGSLRLSCGASGSIFVNKAMGWYRPAPGKERELVAAISSRSSRTFYADSVKGRFTISRDHAKNTVYLKMNILKPEDTEVYSCAVKKRAPDGDYWGQGTQVTVSS | high polyreactivity
